The target in assay [1] is SARS-CoV-2 spike receptor-binding domain (RBD), recombinant (SARS-CoV-2, UniProt P0DTC2 319-541). The assay is described as follows: SPR, Carterra LSA.
Assay [2] addresses T1, SARS-CoV-2 spike receptor-binding domain, wild type (RBD-6×His) (SARS-CoV-2, UniProt P0DTC2 319-541).
Assay [3] deals with T1, SARS-CoV-2 spike receptor-binding …. As to the kind of experiment: ELISA, coated RBD-6His.
For assay [4], the target named is T2, full-length spike protein (coated in ELISA) (SARS-CoV-2, UniProt P0DTC2 16-1213).
Assay [5] deals with T1, SARS-CoV-2 spike receptor-binding …. The source holds these as a separate data set.
Assay [6] shares this target. The source holds these as a separate data set.
Assay [7] shares this target. The source holds these as a separate data set.
Assay [8] concerns the target T3, SARS-CoV-2 spike receptor-binding domain (RBD), recombinant (SARS-CoV-2, UniProt P0DTC2 319-541). The assay is described as follows: ELISA on RBD.
Assay [9] has as its target T3, SARS-CoV-2 spike receptor-binding …. As to the kind of experiment: SPR, Carterra LSA. The source holds these as a separate data set.
Assay [10] has as its target RBD-6×His protein, RBD WT of the SARS-CoV-2 spike protein (SARS-CoV-2, UniProt P0DTC2 319-541). As to the kind of experiment: ELISA on recombinant RBD.
The target in assay [11] is T1, SARS-CoV-2 spike receptor-binding …. This is another data set of the same source.
Assay [12] deals with RBD fragment of the SARS-CoV-2 spike protein (RBD WT), recombinant (SARS-CoV-2, UniProt P0DTC2 319-541). As to the kind of experiment: SPR Carterra LSA.
Assay [13] has as its target T1, SARS-CoV-2 spike receptor-binding …. The source holds these as a separate data set.
Assay [14] addresses T2, full-length spike protein (coated in …). This is another data set of the same source.

Substitutions are numbered along the chain they refer to. Where two headings read alike, the source gives them in different places.

B1: 3-12B12 (antibody, V domains shown)
VH: EVQLQQSGAELVRPGALVKLSCKASGFNIKDYYMHWVKQRPEQGLEWIGWIDPENGNSIYDPKFQGKASITADTSFNTVNLHLSSLTSEDTAVYYCAPYYYDSTYVGTMDYWGQGTSVTVSS
VL: QIVLTQSPAIMSASPGEKVTMTCSASSSVGYMYWYQQKPGSSPRLLIYDTSNLASGVPVRFGGSGSGTSYSLTISRMEAEDAATYYCQQWSSYPPRTFGGGTKLEIK
As for B1, the Kd in assay [1] is 0.0165 nM.

B2: VH1/VL1 (antibody, V domains shown)
VH: EVQLQQSGAELVKPGASVKLSCTASGFNIKETYVHWVKQRPEQGLEWIGRIDPAIGDSEYDPKFQGKATVTADTSSNTAYLQLSRLTSEDTAVYYCARTWGPFFDFWGQGTTLTVSS
VL: DVVMTQTPLSLPVSLGDQASISCRSSQSLVHSHGNTFLHWYLQKPGQSPKVLIYKVSSRFSGVPDRFSGSGAGTDFTLKISRVEAEDLGVYFCSQSTHVPYTFGGGTKLEIK
notes: also called chimeric antibody 9-8F2-B11, combination VH1/VL1
Consider B2, for which, in assay [2], the “EC50 (read off the curve)” value is approximately 0.1 µg/mL.

B3: 9-8F2-B11 (mouse) (antibody, V domains shown)
VH: B2 VH
VL: B2 VL
Take B3: the IC50 in assay [3] turned out to be 0.0137 µg/mL; in assay [4], 0.0037 µg/mL. For the same molecule, the Kd in [5] amounted to 0.913 nM.

B4: humanised 9-8F2-B11 (VH3VL3) (antibody, V domains shown)
VH: QVQLVQSGAEVKKPGASVKVSCKASGFNIKETYVHWVRQAPGQGLEWMGRIDPAIGDSEYAQKFQGRVTMTRDTSISTAYMELSRLRSDDTAVYYCARTWGPFFDFWGQGTLVTVSS
VL: DIVMTQTPLSLSVTPGQPASISCKSSQSLLHSHGNTFLHWYLQKPGQSPQVLIYKVSSRFSGVPDRFSGSGSGTDFTLKISRVEAEDVGVYYCSQSTHVPYTFGQGTKLEIK
notes: also called 9-8F2-B11 humanised
For B4, the Kd in assay [6] is 2.26 nM. The concentration for a half-maximal effect (EC50 (read off the curve)) in assay [7] is approximately 0.01 µg/mL.

B5: 2-5C4 (antibody, V domains shown)
VH: EVQLVESGGGLIQPGGSLRLSCAASGLTVSSNYMNWVRQAPGKGLEWVSVIYAGGSTFYADSVKGRFTISRDNSKNTLYLQMNSLRAEDTAFYYCARESYGMDVWGQGTTVTVSS
VL: EIVLTQSPATLSLSPGERATLSCRASQSISSSYLAWYQQKPGQAPRLLIYGASSRATGIPDRFSGSGSGTDFTLTISRLEPEDFAVYYCQQYGSLYTFGQGTKVEIK
With B5, the “A(405 nm)” value in [8] came out at 2.26. For the same molecule, the Kd in assay [9] was 0.026 nM.

B6: 2-5F8 (antibody, V domains shown)
VH: QVQLVQSGAEVKKPGASVKVSCKASGYTFTNYYMHWVRQAPGQGLEWMGVINPSGASTSYAQKFQGRVTMTRDTSTSTVYMELSSLRSEDTAVYYCASWGGNIPLYYYYGMDVWGQGTTVTVSS
VL: QSALTQPPSASGSPGQSVTISCTGTSSDVGGYNYVSWYQQHPGKAPKLMIYEVSKRPSGVPDRFSGSKAGNTASLTVSGLQAEDEADYYCTSYAGSNIWVFGGGTKLTVL
With B6, the “A(405 nm)” value in assay [8] amounted to 3.48. For the same molecule, the Kd in assay [9] amounted to 1.5 nM.

B7: humanised antibody 9-7A4-C2 (antibody, V domains shown)
VH: EVQLQQSGAEVKKPGASVKVSCKTSGYTFTEYTMYWVRQAPGQRLEWMGGINPNNGDSSYIQKFQGRVTITRDTSASTAYMELSSLRSEDTAVYYCARDGYPNSYAMDYWGQGTLVTVSS
VL: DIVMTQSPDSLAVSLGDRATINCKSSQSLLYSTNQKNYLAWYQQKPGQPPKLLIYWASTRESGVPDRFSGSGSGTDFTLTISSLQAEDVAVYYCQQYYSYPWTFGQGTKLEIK
notes: also called humanised 9-7A4-C2
Turning to B7, the binding result in assay [10] is recorded as “binds”.

B8: 2-4G1 (antibody, V domains shown)
VH: EVQLVQSGAEVKRPGASVKVSCKASGYTFTSYGLSWVRQAPGQGLEWMGWINTYNGHTNYAQKVQGRVTLTTDTSTSTAYMELRSLRSDDTAVYYCARVESVYYGSGTCDPWGQGTLVTVSS
VL: DIQMTQSPSSLSASVGDRVTITCRASQSISSYLNWYQQKPGKAPKLLIYIASSLQSGVPSRFSGSGSGTDFTLTISSLQPEDFATYYCHQSYSSPHTFGQGTKLEIK
Consider B8, for which the “A(405 nm)” value in [8] was 2.08. Besides, in [9], the Kd amounted to 14.4 nM.

B9: 9-2H7-D7 chimera (antibody, V domains shown)
VH: EVQLQQSGPELVKPGASVTISCKTSGYTFTEYTMYWVKQSHGKSLEWIGGINPYIGDTSYNQNFKGKATLTVDKSSSTAYMELRSLTSEDSAVYYCARDGYPDYSAMDFWGQGTSVTVSS
VL: DIVMSQSPSSLAVSVGEKVTMNCKSSQNLLYSSNQKNYLAWYQQKPGQSPKLLIYWASTRESGVPDRFTGSGSGTDFTLTISSVKAEDLAVYSCQQYYTYPWTFGGGTKLEIK
Consider B9, for which the “EC50 (read off the curve)” value in [11] is approximately 0.05 µg/mL.

B10: 9-7A4 (antibody, V domains shown)
VH: EVQLQQSGPELVKPGASVKISCKTSGYTFTEYTMYWVKQSHGKSLEWIGGINPNNGDSSYIQKFKGKATLTVDESSSTAYMELRSLTSEDSAVYYCARDGYPNSYAMDYWGQGTSVTVSS
VL: B9 VL with E17D, N22S, N28S, S33T, S82G, K85R, A86P, S93Y, T99S
B10: the Kd in assay [12] was found to be 0.735 nM.

B11: 9-2H7-D7 (mouse) (antibody, V domains shown)
VH: B9 VH
VL: B9 VL
In assay [13], B11 gave a Kd of 0.0515 nM. In addition, the figures for the IC50 in assay [14] and in [3] were 0.0046 µg/mL and 0.0269 µg/mL, respectively.

B12: humanised antibody 9-2H7-D7 (antibody, V domains shown)
VH: QVQLQQSGAEVKKPGASVKISCKTSGYTFTEYTMYWVKQSHGKSLEWMGGINPYIGDTSYNQNFKGRVTMTRDKSTSTAYMELSSLTSEDSAVYYCARDGYPDYSAMDFWGQGTSVTVSS
VL: B9 VL with S5T, K18R, M21I, Q35N, T69S, K85Q, L89V
notes: also called humanised 9-2H7-D7
On to B12, for which the binding result in assay [10] is listed as “binds”.

B13: 9-7A4-C2 (mouse) (antibody, V domains shown)
VH: B10 VH
VL: B9 VL with E17D, N22S, N28S, S33T, S82G, K85R, A86P, S93Y, T99S
With B13, the figures for the IC50 in [3] and in assay [4] were 0.0133 µg/mL and 0.0027 µg/mL, respectively. For the same molecule, in assay [5], the Kd is 0.643 nM.

B14: 9-2H7 (antibody, V domains shown)
VH: B9 VH
VL: B9 VL
For B14, the Kd in assay [12] stood at 0.00977 nM.

B15: 2-5D9 (antibody, V domains shown)
VH: QVQLQESGPGLVKPSETLSLTCTVSGGSISSYYWSWIRQPPGKGLEWIGYIYYTGSTNYNPSLKSRVTISVDTSKNQFSLKLRSVTAADTAVYYCAGTYDSNLLDPWGQGTLVTVSS
VL: DIQMTQSPSSLSASVGDRVTITCRASQGISNSLAWYQQKPGKAPKLLLYDVFRFESGVPSRFSGSGSGTDYTLTISSLQPDDFATYYCQQYYSTPYTFGQGTKVEIK
As to B15, the “A(405 nm)” value in assay [8] was found to be 3.49. Moreover, the Kd in assay [9] is 0.544 nM.

The values above are taken from patent US20240382586A1 (TAKIS S R L, published 2024).
